The data set concerns Escherichia coli TOP10. Description: shrunken log2 fold change of peptide-encoding DNA abundance (4.5 h post-induction vs induction); higher = less antimicrobial activity (less host growth inhibition). Particulars: time post-induction: 4.5 h; library: site-saturation at positions 5, 18, 19, 20.
In the case of RRIRWRPPRLPRPRPRPDFHPRP, the “shrunken log2 fold change” value is -0.239.

Consider RRIRYRPPRLPRPRPRPAYGPRP, for which the “shrunken log2 fold change” value was determined as 3.33.

For the sequence RRIRQRPPRLPRPRPRPGIFPRP, the “shrunken log2 fold change” value amounted to 0.0804.

For the sequence RRIRTRPPRLPRPRPRPDKCPRP, the “shrunken log2 fold change” value is -0.229.

For the sequence RRIRKRPPRLPRPRPRPPKEPRP, the “shrunken log2 fold change” value came out at 0.944.

As to RRIRQRPPRLPRPRPRPYGVPRP, the “shrunken log2 fold change” value was -0.0132.

As for RRIRSRPPRLPRPRPRPIRFPRP, the “shrunken log2 fold change” value was -0.964.

As for RRIRDRPPRLPRPRPRPIVIPRP, the “shrunken log2 fold change” value is -0.259.

With RRIRYRPPRLPRPRPRPGVEPRP, the “shrunken log2 fold change” value stood at 0.0346.

As to RRIRQRPPRLPRPRPRPLRKPRP, the “shrunken log2 fold change” value amounted to 0.356.

For RRIRLRPPRLPRPRPRPQDDPRP, the “shrunken log2 fold change” value is -0.224.

Consider RRIRTRPPRLPRPRPRPNKRPRP, for which the “shrunken log2 fold change” value was -0.265.

As to RRIRMRPPRLPRPRPRPVGCPRP, the “shrunken log2 fold change” value is 0.972.

Take RRIRNRPPRLPRPRPRPPCWPRP: the “shrunken log2 fold change” value is 0.231.

For RRIRNRPPRLPRPRPRPHGYPRP, the “shrunken log2 fold change” value was -0.066.

For RRIRSRPPRLPRPRPRPQMSPRP, the “shrunken log2 fold change” value was -0.0374.

RRIRSRPPRLPRPRPRPRYQPRP: the “shrunken log2 fold change” value was -0.145.

In the case of RRIRDRPPRLPRPRPRPEFCPRP, the “shrunken log2 fold change” value amounted to 1.14.

For RRIRFRPPRLPRPRPRPDYNPRP, the “shrunken log2 fold change” value is -0.422.

With RRIRYRPPRLPRPRPRPKGPPRP, the “shrunken log2 fold change” value was -0.0132.

As to RRIRERPPRLPRPRPRPQHVPRP, the “shrunken log2 fold change” value was -0.356.

RRIRQRPPRLPRPRPRPNMNPRP: the “shrunken log2 fold change” value is -0.528.

For RRIRKRPPRLPRPRPRPNHIPRP, the “shrunken log2 fold change” value is -0.358.

On to RRIRTRPPRLPRPRPRPKLLPRP, for which the “shrunken log2 fold change” value stood at 0.272.

For RRIRERPPRLPRPRPRPGQRPRP, the “shrunken log2 fold change” value was -0.0192.

Turning to RRIRSRPPRLPRPRPRPHMIPRP, the “shrunken log2 fold change” value is -0.961.

On to RRIRQRPPRLPRPRPRPHPFPRP, for which the “shrunken log2 fold change” value was -0.29.

Consider RRIRIRPPRLPRPRPRPFGWPRP, for which the “shrunken log2 fold change” value is 0.468.

As to RRIRPRPPRLPRPRPRPLPFPRP, the “shrunken log2 fold change” value is -0.75.

In the case of RRIRKRPPRLPRPRPRPTQTPRP, the “shrunken log2 fold change” value stood at 1.25.

RRIRSRPPRLPRPRPRPMPHPRP: the “shrunken log2 fold change” value was 0.00101.

Consider RRIRARPPRLPRPRPRPCKEPRP, for which the “shrunken log2 fold change” value is 0.000506.

Turning to RRIRSRPPRLPRPRPRPDFAPRP, the “shrunken log2 fold change” value was -0.021.

Consider RRIRMRPPRLPRPRPRPHPFPRP, for which the “shrunken log2 fold change” value was determined as 0.169.

For the sequence RRIRPRPPRLPRPRPRPFPIPRP, the “shrunken log2 fold change” value was -0.371.

Take RRIRWRPPRLPRPRPRPRFLPRP: the “shrunken log2 fold change” value is 0.0174.

Consider RRIRPRPPRLPRPRPRPQIHPRP, for which the “shrunken log2 fold change” value was -0.536.

Take RRIRGRPPRLPRPRPRPMGPPRP: the “shrunken log2 fold change” value was determined as 0.846.

As to RRIRGRPPRLPRPRPRPWSAPRP, the “shrunken log2 fold change” value came out at 0.232.

Turning to RRIRHRPPRLPRPRPRPWCKPRP, the “shrunken log2 fold change” value was -0.111.

In the case of RRIRSRPPRLPRPRPRPTYDPRP, the “shrunken log2 fold change” value was -0.262.

Consider RRIRPRPPRLPRPRPRPHHMPRP, for which the “shrunken log2 fold change” value was -0.778.

With RRIRMRPPRLPRPRPRPFCFPRP, the “shrunken log2 fold change” value was determined as 0.222.

With RRIRVRPPRLPRPRPRPHEEPRP, the “shrunken log2 fold change” value is 0.0138.

As for RRIRDRPPRLPRPRPRPNQTPRP, the “shrunken log2 fold change” value is 0.0331.

Consider RRIRFRPPRLPRPRPRPDAKPRP, for which the “shrunken log2 fold change” value was determined as 0.417.

For RRIRYRPPRLPRPRPRPGIQPRP, the “shrunken log2 fold change” value is -0.0445.

For the sequence RRIRGRPPRLPRPRPRPDDLPRP, the “shrunken log2 fold change” value was 0.0487.

With RRIRHRPPRLPRPRPRPAKPPRP, the “shrunken log2 fold change” value was determined as 0.533.

Regarding RRIRLRPPRLPRPRPRPETWPRP, the “shrunken log2 fold change” value stood at 0.0117.

As for RRIRQRPPRLPRPRPRPCAPPRP, the “shrunken log2 fold change” value worked out at 0.226.

Take RRIRYRPPRLPRPRPRPKVWPRP: the “shrunken log2 fold change” value came to 0.221.

For RRIRERPPRLPRPRPRPAVAPRP, the “shrunken log2 fold change” value was 0.0153.

For RRIRRRPPRLPRPRPRPMCVPRP, the “shrunken log2 fold change” value is -0.0364.

As to RRIRSRPPRLPRPRPRPTNKPRP, the “shrunken log2 fold change” value was -0.328.

RRIRQRPPRLPRPRPRPDIYPRP: the “shrunken log2 fold change” value is -0.284.

For RRIRMRPPRLPRPRPRPRKMPRP, the “shrunken log2 fold change” value came out at 0.356.

Consider RRIRHRPPRLPRPRPRPYWSPRP, for which the “shrunken log2 fold change” value is -0.171.

With RRIRRRPPRLPRPRPRPDKFPRP, the “shrunken log2 fold change” value is 0.0835.

With RRIRRRPPRLPRPRPRPRIEPRP, the “shrunken log2 fold change” value worked out at 0.261.

RRIRWRPPRLPRPRPRPFPCPRP: the “shrunken log2 fold change” value was -0.0902.

On to RRIRDRPPRLPRPRPRPKLAPRP, for which the “shrunken log2 fold change” value stood at 0.271.

For the sequence RRIRSRPPRLPRPRPRPAFLPRP, the “shrunken log2 fold change” value was -0.0125.

Turning to RRIRMRPPRLPRPRPRPLGQPRP, the “shrunken log2 fold change” value amounted to 0.738.

As for RRIRVRPPRLPRPRPRPGDSPRP, the “shrunken log2 fold change” value is -0.0395.

On to RRIRVRPPRLPRPRPRPHEFPRP, for which the “shrunken log2 fold change” value is -0.0515.

Consider RRIRTRPPRLPRPRPRPNGFPRP, for which the “shrunken log2 fold change” value is -0.0646.

For RRIRCRPPRLPRPRPRPFDWPRP, the “shrunken log2 fold change” value was -0.0737.

As for RRIRKRPPRLPRPRPRPACFPRP, the “shrunken log2 fold change” value is -0.0348.

RRIRPRPPRLPRPRPRPTDAPRP: the “shrunken log2 fold change” value came to 0.12.

Regarding RRIRKRPPRLPRPRPRPPQKPRP, the “shrunken log2 fold change” value stood at 0.682.

Turning to RRIRWRPPRLPRPRPRPPGYPRP, the “shrunken log2 fold change” value stood at 0.684.

For RRIRHRPPRLPRPRPRPTSMPRP, the “shrunken log2 fold change” value is -0.0792.

For RRIRARPPRLPRPRPRPGFWPRP, the “shrunken log2 fold change” value turned out to be 0.682.

For the sequence RRIRKRPPRLPRPRPRPTTFPRP, the “shrunken log2 fold change” value was 0.18.

As to RRIRWRPPRLPRPRPRPRSEPRP, the “shrunken log2 fold change” value came to 0.0877.

With RRIRSRPPRLPRPRPRPQFCPRP, the “shrunken log2 fold change” value is -0.16.

Regarding RRIRYRPPRLPRPRPRPTQEPRP, the “shrunken log2 fold change” value turned out to be 0.0039.

In the case of RRIRHRPPRLPRPRPRPYPAPRP, the “shrunken log2 fold change” value was -0.425.

On to RRIRERPPRLPRPRPRPLLVPRP, for which the “shrunken log2 fold change” value is -0.441.

In the case of RRIRKRPPRLPRPRPRPTVVPRP, the “shrunken log2 fold change” value came to 1.

For RRIRFRPPRLPRPRPRPAQLPRP, the “shrunken log2 fold change” value turned out to be 0.36.

With RRIRQRPPRLPRPRPRPAPEPRP, the “shrunken log2 fold change” value stood at 0.228.

Turning to RRIRFRPPRLPRPRPRPTRAPRP, the “shrunken log2 fold change” value came to 0.825.

RRIRWRPPRLPRPRPRPNSVPRP: the “shrunken log2 fold change” value is -0.325.

For RRIRERPPRLPRPRPRPHYCPRP, the “shrunken log2 fold change” value is -0.0425.

In the case of RRIRARPPRLPRPRPRPQCEPRP, the “shrunken log2 fold change” value came out at 0.724.

Turning to RRIRFRPPRLPRPRPRPSARPRP, the “shrunken log2 fold change” value was found to be 0.0874.

For the sequence RRIRARPPRLPRPRPRPNEFPRP, the “shrunken log2 fold change” value was -0.362.

Consider RRIRGRPPRLPRPRPRPDPGPRP, for which the “shrunken log2 fold change” value was found to be 0.616.

For the sequence RRIRQRPPRLPRPRPRPNDEPRP, the “shrunken log2 fold change” value turned out to be 0.0763.

Regarding RRIRMRPPRLPRPRPRPLGIPRP, the “shrunken log2 fold change” value is 0.0188.

Turning to RRIRWRPPRLPRPRPRPNCAPRP, the “shrunken log2 fold change” value was 0.255.

As to RRIRYRPPRLPRPRPRPNQGPRP, the “shrunken log2 fold change” value is -0.00893.

With RRIRVRPPRLPRPRPRPENAPRP, the “shrunken log2 fold change” value is 0.173.

Take RRIRTRPPRLPRPRPRPTQEPRP: the “shrunken log2 fold change” value was -0.0182.

Consider RRIRGRPPRLPRPRPRPSSFPRP, for which the “shrunken log2 fold change” value worked out at 0.406.

Take RRIRTRPPRLPRPRPRPQIYPRP: the “shrunken log2 fold change” value was -0.179.

RRIRSRPPRLPRPRPRPCFQPRP: the “shrunken log2 fold change” value was -0.0966.

Take RRIRLRPPRLPRPRPRPLAHPRP: the “shrunken log2 fold change” value was -0.174.

As for RRIRMRPPRLPRPRPRPHMYPRP, the “shrunken log2 fold change” value was -0.568.

As for RRIRARPPRLPRPRPRPQIIPRP, the “shrunken log2 fold change” value came to 0.0561.

For RRIRVRPPRLPRPRPRPEVTPRP, the “shrunken log2 fold change” value was -0.0717.

With RRIRSRPPRLPRPRPRPNSRPRP, the “shrunken log2 fold change” value is -0.105.

With RRIRRRPPRLPRPRPRPHECPRP, the “shrunken log2 fold change” value came out at 0.0921.

As to RRIRPRPPRLPRPRPRPKFQPRP, the “shrunken log2 fold change” value turned out to be 0.103.

In the case of RRIRWRPPRLPRPRPRPVGMPRP, the “shrunken log2 fold change” value is 0.456.

Consider RRIRPRPPRLPRPRPRPHTKPRP, for which the “shrunken log2 fold change” value came out at 0.00533.

For the sequence RRIRIRPPRLPRPRPRPFDQPRP, the “shrunken log2 fold change” value is -0.385.

On to RRIRLRPPRLPRPRPRPMQSPRP, for which the “shrunken log2 fold change” value was 0.0626.

As for RRIRERPPRLPRPRPRPMREPRP, the “shrunken log2 fold change” value was 0.992.

With RRIRQRPPRLPRPRPRPLRTPRP, the “shrunken log2 fold change” value was 0.691.

As for RRIRQRPPRLPRPRPRPGYLPRP, the “shrunken log2 fold change” value was 0.0613.

For RRIRIRPPRLPRPRPRPNTFPRP, the “shrunken log2 fold change” value was -0.926.

For the sequence RRIRKRPPRLPRPRPRPYFCPRP, the “shrunken log2 fold change” value was -0.288.

Take RRIRGRPPRLPRPRPRPLMEPRP: the “shrunken log2 fold change” value worked out at 0.6.

On to RRIRMRPPRLPRPRPRPDQPPRP, for which the “shrunken log2 fold change” value is -0.0102.

RRIRCRPPRLPRPRPRPTVWPRP: the “shrunken log2 fold change” value was found to be 0.553.

For the sequence RRIRCRPPRLPRPRPRPVGQPRP, the “shrunken log2 fold change” value was 0.0533.

For RRIRPRPPRLPRPRPRPIKDPRP, the “shrunken log2 fold change” value is -0.763.

Take RRIRIRPPRLPRPRPRPRKPPRP: the “shrunken log2 fold change” value is -0.0479.

RRIRHRPPRLPRPRPRPESHPRP: the “shrunken log2 fold change” value is -0.0331.

Turning to RRIRWRPPRLPRPRPRPWNRPRP, the “shrunken log2 fold change” value worked out at 0.066.

Consider RRIRNRPPRLPRPRPRPYRIPRP, for which the “shrunken log2 fold change” value is -0.115.

For the sequence RRIRERPPRLPRPRPRPARHPRP, the “shrunken log2 fold change” value was -0.00285.

The values above are taken from the supplement of paper PMC9112550, “Optimization of the antimicrobial peptide Bac7 by deep mutational scanning” (BMC Biology, 2022).
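Note: peptides expressed intracellularly from a pBAD plasmid library in pooled LB shake-flask culture, induced with 0.3% L-arabinose, DNA abundance read by NGS, three biological replicates, DESeq2 with apeglm shrinkage.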
